From patent publication US20090252732A1 (published 2009)
Positions count from the first letter of the chain named. Values belong to the binder of their own block, whether it stands above or below them.

Key:
[1] = target: T1, mIL31-CEE: purified, recombinant mouse IL-31 (produced in BHK cells) fused at the C-terminus with a peptide … (mouse, UniProt Q6EAL8 31-163); test: ELISA on plate bound mIL-31-CEE, first round clone supernatant
T1 construct: Biotinylated in the capture ELISA
T1 sequence: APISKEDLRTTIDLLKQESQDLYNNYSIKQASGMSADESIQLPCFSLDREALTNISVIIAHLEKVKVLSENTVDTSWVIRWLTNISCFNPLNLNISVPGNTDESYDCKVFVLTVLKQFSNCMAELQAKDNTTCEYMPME

[2] = target: T2, CEE peptide tag, sequence EYMPME; test: ELISA on plate bound mIL-31-CEE (tag tested as part of that protein)
T2 construct: Tested only as the C-terminal tag of the other species' IL-31-CEE, not as a free peptide; also called CEE tag
T2 peptide: EYMPME

[3] = target: T3, IL-31-CEE: purified, recombinant human IL-31 fused at the C-terminal with a peptide consisting of the … (human, UniProt Q6EBC2 24-164); test: capture ELISA: mAb of first round clone supernatant captured on anti-mouse IgG Fc, biotinylated IL-31-CEE
T3 construct: also called human IL-31-CEE; rIL31
T3 sequence: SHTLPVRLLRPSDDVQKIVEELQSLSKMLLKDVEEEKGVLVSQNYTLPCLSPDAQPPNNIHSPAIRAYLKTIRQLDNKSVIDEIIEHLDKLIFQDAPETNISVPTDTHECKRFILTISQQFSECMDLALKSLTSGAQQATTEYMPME
Protocol: These new supernatants were tested using the cell-based neutralization assay (serial 3-fold dilutions starting with neat supernatant and proceeding to a final 1:243 dilution) as well as a “capture” style ELISA assay similar to that used in the development of the rat anti-murine IL-31 mAbs with the following differences; 1) sheep anti-mouse IgG, Fc specific antibody (Jackson Immunoresearch) (1 ug/mL) as plate coating antibody, 2) plates blocked once with PBS-Tween+1% BSA for 1 hr, 3) a single titration of each supernatant added to wells (serial 3-fold dilutions starting with neat supernatant and proceeding to a final 1:2187 dilution), and 4) addition of biotinylated IL-31-CEE (3:1 molar ratio of biotin:protein), 200 ng/mL. This assay was felt to be more pertinent than the binding of antibody to plate bound IL-31-CEE as it assessed the ability of antibody to bind to IL-31-CEE in solution, a property essential to a good antibody for sandwich style ELISAs. It was in fact observed that a number of the master wells supernatants containing antibody that bound well to plate bound IL-31-CEE poorly recognized this molecule in solution.
To reduce the number of hybridomas going into further subcloning, two new assays were performed with exhausted supernatant from each of the selected first round clones. […]

[4] = target: T3, IL-31-CEE: purified, recombinant human …; test: cell-based or functional assay

B2: mouse anti-human IL-31 mAb from clone 292.51.5.2 (antibody, mouse IgG1, V domains shown)
VH: EVQLVESGGDLVKPGGSLKLSCAASGFTFSSFVMSWVRQSPEKRLEWVATINSGGYYSFHPDSVKGRFTISRDNAKNTLYLQMSSLRSEDTAIYYCARQEGWSSAYFSYWGQGTLVTVSA
VL: DIVMTQSPSSLAMSVGQKVTMICKSSQSLLNSSNQKNYLAWYQQKPGHSPKLLVSFTSTRESGVPDRFIGSGSGTDFTLTITNMQAEDLADYFCQQHYDTPYTFGGGTKLEIR
notes: Mouse IgG1; assays used first round clone 292.51.5
IC50 (ng/mL), cell-based neutralization (luciferase), IL-31-CEE at 300 pg/mL [4]: 6.48 ng/mL
IC50 (pM), cell-based neutralization (luciferase), IL-31-CEE at 300 pg/mL [4]: 43.2 pM
binding result [1]: no binding
binding result [2]: no binding

B3: mouse anti-human IL-31 mAb from clone 292.12.3.1 (ATCC Patent Deposit Designation PTA-6815) (antibody, mouse IgG1, V domains shown)
VH: QVQLQQSGAELARPGASVNLSCKASGYTLTRYWMQWVKQRPGQGLEWIGAIYPGDGDTRYSQKFKGKATLTADKSSSTAYMQLNNLASEDSAVYYCAFPDGYYAAPYGMDYWGQGTSVTVSS
VL: DIQMTQSPASLSASVGETVTITCRASGNIHNYLAWYQQKQGKSPQLLVYNAKTLADGVPSRFSGSRSETQYSLKINSLQPEDFGSYYCQHFWSTPWTFGGGTKLEIK
notes: Mouse IgG1, kappa; assays used supernatant of first round clone 292.12.3
IC50 (ng/mL), cell-based neutralization (luciferase), IL-31-CEE at 300 pg/mL [4]: 1.2 ng/mL
IC50 (pM), cell-based neutralization (luciferase), IL-31-CEE at 300 pg/mL [4]: 7.98 pM
binding result [1]: no binding
binding result [2]: no binding

B4: mouse anti-human IL-31 mAb from clone 292.72.3.1 (ATCC Patent Deposit Designation PTA-6816) (antibody, mouse IgG2a, V domains shown)
VH: QVQVQQSGAELARPGASVKLSCKASGYTLTRYWMQWVKQRPGQGLEWIGAIYPRDGDTRYSQKFKGKATLTADKSSTTAYMQLSSLASEDSAVYYCAYPDGSYAAPNGMEYWGQGSSVTVSS
VL: B3 VL with T5S, N28S, K52E, R66G, E68G, N76S, S85T, S93I
notes: Mouse IgG2a; assays used first round clone 292.72.3
IC50 (ng/mL), cell-based neutralization (luciferase), IL-31-CEE at 300 pg/mL [4]: 2 ng/mL
IC50 (pM), cell-based neutralization (luciferase), IL-31-CEE at 300 pg/mL [4]: 13.3 pM
binding result [1]: no binding
binding result [2]: no binding

B6: mouse anti-human IL-31 mAb from clone 292.105.4.1 (antibody, mouse IgG1, V domains shown)
VH: EVQLVESGGDLVKPGGSLKLSCAASGFTFSTYIMSWVRQSPEKRLEWVATINSGGYYTLYPDSVKGRFTISRDNAKNTLSLQLSSLRSEDTAMYFCARQEGWSSAWFAYWGQGTLVTVSA
VL: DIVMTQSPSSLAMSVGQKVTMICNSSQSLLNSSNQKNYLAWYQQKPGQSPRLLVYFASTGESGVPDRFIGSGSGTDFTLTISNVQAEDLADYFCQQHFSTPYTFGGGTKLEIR
notes: Mouse IgG1; assays used first round clone 292.105.4
IC50 (ng/mL), cell-based neutralization (luciferase), IL-31-CEE at 300 pg/mL [4]: 9.14 ng/mL
IC50 (pM), cell-based neutralization (luciferase), IL-31-CEE at 300 pg/mL [4]: 61 pM
binding result [1]: no binding
binding result [2]: no binding

B8: mouse anti-human IL-31 mAb from clone 292.39.5.3 (antibody, mouse IgG1, V domains shown)
VH: B6 VH with A75V
VL: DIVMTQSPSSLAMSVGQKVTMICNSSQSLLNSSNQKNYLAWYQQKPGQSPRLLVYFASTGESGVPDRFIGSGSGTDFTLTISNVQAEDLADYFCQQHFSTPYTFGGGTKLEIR
notes: Mouse IgG1; assays used first round clone 292.39.5
IC50 (ng/mL), cell-based neutralization (luciferase), IL-31-CEE at 300 pg/mL [4]: 8.63 ng/mL
IC50 (pM), cell-based neutralization (luciferase), IL-31-CEE at 300 pg/mL [4]: 57.5 pM
binding result [1]: no binding
binding result [2]: no binding

B9: mouse anti-human IL-31 mAb from clone 292.64.6.5.5 (antibody, mouse IgG1, V domains shown)
VH: B6 VH
VL: DIVMTQSPSSLAMSVGQKVTMICNSSQSLLNSSNQKNYLAWYQQKPGQSPRLLIYFASTGESGVPDRFIGSGSGTDFTLTISNVQAEDLADYFCQQHFSTPYTFGGGTKLEIR
notes: Mouse IgG1; assays used first round clone 292.64.6
IC50 (ng/mL), cell-based neutralization (luciferase), IL-31-CEE at 300 pg/mL [4]: 10.1 ng/mL
IC50 (pM), cell-based neutralization (luciferase), IL-31-CEE at 300 pg/mL [4]: 67 pM
binding result [1]: no binding
binding result [2]: no binding
EC50 [3]: 3.4 ng/mL

The next lines start with the values.

binding result [1]: no binding
binding result [2]: no binding
EC50 [3]: 13.4 ng/mL
B1: mouse anti-human IL-31 mAb from clone 294.144.3.5 (ATCC Patent Deposit Designation PTA-6873) (antibody, mouse IgG1, V domains shown)
VH: QVQLQQSGPELMKPGASVKISCKATGYTFSTYWIEWIKQRPGHGLEWIGEILPGRGTTNYNAKFQGKATFTAETSSNTAYMQLSSLTSEDSAVYYCTTESKLGDDDYWQGTTLTVSS
VL: ENVLTQSPAIMSASPGERVTMTCSASSSVSYMHWYQQKSSNSPKLWIYDTTKLASGVPGRFSGSGSGNSYSLTISSMEAEDVATYFCFQGSEHPLTFGGGTTLEI
notes: Mouse IgG1

IC50 (ng/mL), cell-based neutralization (luciferase), IL-31-CEE at 300 pg/mL [4]: 1.08 ng/mL
IC50 (pM), cell-based neutralization (luciferase), IL-31-CEE at 300 pg/mL [4]: 7.18 pM
binding result [1]: no binding
binding result [2]: no binding
B5: mouse anti-human IL-31 mAb from clone 292.84.1.6 (ATCC Patent Deposit Designation PTA-6871) (antibody, V domains shown)
VH: B3 VH with A50T, T69S, S77N, Y95F
VL: B3 VL with K42R
notes: Mouse IgG2a, kappa; Assays used first round clone 292.84.1

IC50 (ng/mL), cell-based neutralization (luciferase), IL-31-CEE at 300 pg/mL [4]: 8.29 ng/mL
IC50 (pM), cell-based neutralization (luciferase), IL-31-CEE at 300 pg/mL [4]: 55.2 pM
binding result [1]: no binding
binding result [2]: no binding
B7: mouse anti-human IL-31 mAb from clone 292.109.4.4 (antibody, mouse IgG1, V domains shown)
VH: B6 VH
VL: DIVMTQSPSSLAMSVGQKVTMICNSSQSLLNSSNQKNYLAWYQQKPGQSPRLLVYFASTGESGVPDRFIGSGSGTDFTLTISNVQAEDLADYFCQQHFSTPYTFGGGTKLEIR
notes: Mouse IgG1; assays used first round clone 292.109.4

IC50 (ng/mL), cell-based neutralization (luciferase), IL-31-CEE at 300 pg/mL [4]: 6.55 ng/mL
IC50 (pM), cell-based neutralization (luciferase), IL-31-CEE at 300 pg/mL [4]: 43.7 pM
binding result [1]: no binding
binding result [2]: no binding
B10: mouse anti-human IL-31 mAb from clone 292.118.6.4 (ATCC Patent Deposit Designation PTA-6830) (antibody, mouse IgG1, V domains shown)
VH: B6 VH with D10G, A24V, S30K, L59I, S80Y, L83M, F95Y
VL: B9 VL with K45R, I54V, I69M
notes: Mouse IgG1; assays used first round clone 292.118.6
